Assay results: patent publication US7176293B1, “Compositions and methods to enhance sensitivity of cancer cells to mitotic stress” (The Wistar Institute of Anatomy and Biology, priority 1999, dated 2007)

Assays:
Type in all cases: cell-based, human
DLD1 and U20S cells = test: Mitotic index of stably transfected DLD1 and U20S cells in response to nocodazole
Protocol: (§1) Stable transfectants were prepared by transfecting DLD1 or U20S cells with 5 μg pSV2-HAchfr or pSV2-HAchfr-M580, or 5 μg pSV2 vector without insert and 1 μg pSV7neo plasmid [Wieczorek et al., supra] using Fugene-6 transfection reagent (Roche). Stably transfected cells were selected with G418. For transient expression, DLD1 or U20S cells were transfected with 5 μg pSV2-HAchfr or pSV2-HAchfrM580 or pSV2 plasmid without insert and 2 μg of a plasmid expressing green fluorescent protein using Fugene-6. SAOS2 cells were transfected as described above, except that the plasmids expressing Chfr were cotransfected with a plasmid expressing green fluorescent protein (GFP).
(§2) Cells were grown on 8-well culture slides coated with human fibronectin (Becton Dickinson) and were examined as either non-synchronized or synchronized cells. […] The slides were sealed with coverslips using Fluoromount-G (Upstate Biotechnology) and visualized with a fluorescence microscope (Leica). […]
To determine whether Chfr accounted for the different response, DLD1 and U20S cells were prepared to stably express HA-tagged wild-type Chfr or Chfr with the […] substitution (M580) or just the neo selectable marker. […] Furthermore, the different effects of wild-type Chfr and Chfr-M580 could not be attributed to differences in protein expression, as determined by immunoblotting. […]

SAOS2 cells = test: Mitotic index of transiently-transfected SAOS2 cells exposed to the TAXOL drug; settings: SAOS2, TAXOL drug added 36 hours after transfection; 12, 14 and 16 hour timepoints
Protocol: as §1, §2
Chfr-ΔFHA, a Chfr protein with deletion of residues 2–142 encompassing the FHA domain, was identified as a dominant negative mutant by studying its function in DLD 1 cells. […] 36 hours later, mitotic stress was induced by exposure to the TAXOL™ drug and the mitotic index was determined 8 to 16 hours late. Protein levels were determined by immunoblotting with an antibody that recognizes the N-terminal HA tag of the expressed Chfr proteins. […]

DLD1 cells [1] = test: Entry into metaphase of synchronized DLD1-neo and DLD1-chfr cells under mitotic stress; settings: synchronized DLD1-chfr vs DLD1-neo; drug added 12 hours after release from the G1-S block
Protocol: All cancer cells were grown in DMEM supplemented with glutamine, penicillin, streptomycin and 10% fetal bovine serum (Life Sciences). Normal human epidermal keratinocytes and osteoblasts were grown in KGM2 and OGM media, respectively (Clonetics). The cells were examined either non-synchronized or synchronized. For synchronization, the cells were treated with 2 mM thymidine for 16 hours, then with 0.25 mM thymidine/deoxycytidine for 9 hours, and then with 0.5 μg/ml aphidicolin for 20–24 hours. The cells were washed three times with PBS between each step [Janss et al., 1998, Exp. Cell Res., 243:29–38]. To induce mitotic stress, synchronized or non-synchronized cells were exposed to 0.5 μg/ml nocodazole, 5 μM of the TAXOL™ drug or 0.5 μg/ml colcemid. Cells were grown on 8-well culture slides coated with human fibronectin (Becton Dickinson) and were examined as either non-synchronized or synchronized cells. […] The slides were sealed with coverslips using Fluoromount-G (Upstate Biotechnology) and visualized with a fluorescence microscope (Leica). […] Progression through the cell cycle was monitored by measuring the mitotic index and by flow cytometric analysis of the DNA content of the cells.

DLD1 cells [2] = test: Mitotic index of unsynchronized DLD1 cells stably expressing Chfr or Chfr-A325, exposed to nocodazole; settings: stably transfected unsynchronized DLD1 cells
Excerpt: To determine whether ubiquitin-protein ligase activity is required for checkpoint function, the Chfr mutant that substitutes Cys325 of the ring finger with Ala was stably-expressed in DLD1 cells. These cells were then exposed to mitotic stress and examined for entry into metaphase. The mitotic index of unsynchronized DLD1 cells exposed to nocodazole is high, indicating the absence of a checkpoint that would delay entry into metaphase in response to mitotic stress.

B1: wild-type Chfr: 664 amino acid human checkpoint protein with FHA and ring finger domains, SEQ ID NO: 2; HA-tagged when expressed in cells (protein, listed as Homo sapiens)
chain: MERPEEGKQSPPPQPWGRLLRLGAEEGEPHVLLRKREWTIGRRRGCDLSFPSNKLVSGDHCRIVVDEKSGQVTLEDTSTSGTVINKLKVVKKQTCPLQTGDVIYLVYRKNEPEHNVAYLYESLSEKQGMTQESFEANKENVFHGTKDTSGAGAGRGADPRVPPSSPATQVCFEEPQPSTSTSDLFPTASASSTEPSPAGRERSSSCGSGGGGISPKGSGPSVASDEVSSFASALPDRKTASFSSLEPQDQEDLEPVKKKMRGDGDLDLNGQLLVAQPRRNAQTVHEDVRAAAGKPDKMEETLTCIICQDLLHDCVSLQPCMHTFCAACYSGWMERSSLCPTCRCPVERICKNHILNNLVEAYLIQHPDKSRSEEDVQSMDARNKITQDMLQPKVRRSFSDEEGSSEDLLELSDVDSESSDISQPYVVCRQCPEYRRQAAQPPHCPAPEGEPGAPQALGDAPSTSVSLTTAVQDYVCPLQGSHALCTCCFQPMPDRRAEREQDPRVAPQQCAVCLQPFCHLYWGCTRTGCYGCLAPFCELNLGDKCLDGVLNNNSYESDILKNYLATRGLTWKNMLTESLVALQRGVFLLSDYRVTGDTVLCYCCGLRSFRELTYQYRQNIPASELPVAVTSRPDCYWGRNCRTQVKAHHAMKFNHICEQTRFKN
modifications: HA tag when expressed
notes: HA-tagged when expressed in cells
mitotic index in response to nocodazole (DLD1 and U20S cells): low mitotic index
effect on mitotic index compared to cells transfected with empty vector (SAOS2 cells): no effect
entry into metaphase in response to mitotic stress (DLD1 cells [1]): delays entry into metaphase
mitotic index after exposure to nocodazole (DLD1 cells [2]): low mitotic index
